From PMC10643666

Each substance was assayed against ZIKV envelope (E) protein, HA-tagged (assay: co-immunoprecipitation (HA-specific IP) with densitometry of immunoblots). Settings: HEK 293T cells, lysed 18 h after transfection; n = 4; parent: est. 0.93; read off a plot.

Q: Which ratio to parent (fold E; mut:WT) does the source give for ZIKV prM protein, wild type K60L; Y63A here?
A: The ratio to parent (fold E; mut:WT) was 1.7.

Q: ZIKV prM protein, wild type K60L; Y63S was tested. Which ratio to parent (fold E; mut:WT) did it give?
A: Its ratio to parent (fold E; mut:WT) is 0.9.

Q: Which ratio to parent (fold E; mut:WT) does the source give for ZIKV prM protein, wild type R38L; F42A here?
A: The ratio to parent (fold E; mut:WT) was 1.6.

Q: ZIKV prM protein, wild type R38L; F42S was tested. Which ratio to parent (fold E; mut:WT) did it give?
A: The ratio to parent (fold E; mut:WT) was 0.93.
